According to a protein production outcome set (Wang et al. 2014):

Test: label from the status in PepcDB records
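Also: failed if final PepcDB status was selected cloned or expressed and not failed if soluble or beyond.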

MGKKYEIFLNENEHSLITPKVSFKEILRYYYLYPKNAIPSFKLPFFKPDLSGFSTPHITWLGHSSLFISFKEYKILIDPIFNTHASPISFINKAFKNAPVYNINDFNEIFAVIITHSHFDHLDAKSVKALKDKAKFFITPLKVGNYLKSYGVSEKKIIELDWWSGIEFGDLKIMATPAQHSSSRGDGKNKTLWASFVMEFLSVDKRVFFSADGGYFTHFKKIGEYFGSFDLACLESGQFNIAWPYSHSFPEQILKEAKDLNAKAVMPIHWGRFLAGTHAWNEVVKFLYENLDLPLITPKMGEAYEVGAKLEHHHHHH
protein production: not failed

MGKRFSSFQAAQIRIARPTGQLDEIIRFYEEGLCLKRIGEFSQHNGYDGVMFGLPHADYHLEFTQYEGGSTAPVPHPDSLLVFYVPNAVELAAITSKLKHMGYQEVESENPYWSNGGVTIEDPDGWRIVFMNSKGISGK
protein production: not failed

MGKRSSNDLPPVEASMARHIIHFTGPINSSTCGNLITTCSRALQQGAELLQLNIATMGGECSYGFTLYNFLRALPVEVHTHNLGTVESMGNILFLAGERRTACSFSKFLFHPFHWTLHGSVDHSRMSEYAMSLDYDLRLYAQIVAERTKGAAEVLDVPRYLMAYPRILAPREALENGMIHEIDEMPIASDATQWSVHA
protein production: failed

MGKSDFLSPKAIANRIKSKGLQKLRWYCQMCQKQCRDENGFKCHCMSESHQRQLLLASENPQQFMDYFSEEFRNDFLELLRRRFGTKRVHNNIVYNEYISHREHIHMNATQWETLTDFTKWLGREGLCKVDETPKGWYIQYIDRDPETIRRQLELEKKKKQDLDDEEKTAKFIEEQVRRGLEGKEQETPVFTELS
protein production: not failed

MGKTAIKSTAKVLSFVVQKHWATRLHYDFRLELEGTMKSWAVPKGPSFDPNDKRMAVHVEDHPISYNSFEGEIPSGQYGAGKVIIWDKGTWIPLEDPHKGYRDGKLKFELRGLKLKGHWALVRMRKEENKKQEPWLLIKEKDEYVRSSREYSVVDEMPDSVAELEHHHHHH
protein production: not failed

MGKTMITRALWSYAHRYRPQERWGILKPMQSGTAVEIGDGDYYCQTLPLEQTPREVCPLSFAAPLAPPIAAQLENRRIDLAPLWQTYQQLQERFDYLLVEGIGGLGSPITWEWTVADLAAAWKLPIVLVATVRLGAIAQIVANIALARQYQLVIRGLILNCVSPCSDAEIEQWTPPVFLSRFTQVPVLGVLPYGQHSNEQLAAMVAEWPLDLLWR
protein production: failed

MGKVIGIDLGTTNSCASVLEGGKPIVITNTEGGRTTPSIVGFTKGSQRLVGQLAKRQSVTNAENTVYSIKRFIGRRWDDTVEERSRVPYNCVKGRDDTVSVSIRGQSYTPQEISAMILQKLKADSEAFLGEPVTQAVITVPAYFTDAQRQATKDAGTIAGLEVLRIINEPTAAALAYGLDKQETEELILVFDLGGGTFDVSLLQLGNGVFEVLSTSGNNHLGGDDFDNCVVQWMAESFKQKENIDLSTDKMAIQRLREAAEKAKIELSSMLNTTINLPFITADESGPKHLEMELARSQFEELTKQLLEDTRVPLTQALDDGEIRASDVHRVILVGGSTRIPAIQRVIQEFFPDSQLERSVNPDEAVALGAAIQAGVIGGEVEDVLLLDVTPLSLGLETLGEVTTKIIERNTTIPTSRSEVFSTAVDGQTSVEIHVIQGERAMARDNKSLGKFLLAGIPPAPRGMPQIEVSFEIDVNGILKVSAQDQGTGKEQSIVISHTGGLSGGEIEKMRQEAQQYAAQDQLRLRMMELQNQADSLFHTYETTLQESGELVREELKSSGKQKKDQLAIALRTPNTPVEKLQTLVEEFRQIILLIGTEVYQQGKGAASNEFANFVQGTSSGTSQMIESLETNLNPIQASSGITMTPGTMINGTVNPGGMDYVETAPVYGLDDGEEFDFDADETVYSDYEAID
protein production: failed

MGLDVDWALDWLKLSAKAMAEHRVELIELDRPIGDSDHGENMDRGFQAVLQKLDETPPETPGAALKAAAMALMSKVGGAAGPLYGTAYLRAATSLGDAGDIDAEALAAALAAARDGVVARGKAELGDKTMIDAWTPAVEAAQKAAASGADPVAVLEAAAEAAETGAMATDPLVARKGRASYLGERSAGHRDPGAASTALLLRAAAAAAAGSTADKGADAV
protein production: failed

MGLEEELLRIAKKLEKMVSRKKTEGALDLLKKLNSCQMSIQLLQTTRIGVAVNGVRKHCSDKEVVSLAKVLIKNWKRLLDSPRTTKGERE
protein production: not failed

MGLLDHLWDDTVAGPRPENGLGKLRKHHTFSFRPSSGNDQSEAGSARSYGEDSLPEEAVKVTRSIMIIKPPGYQGSSAPASPAGSTPPLSPFSPPLSPFSANAGGKEPFRFRRRSTSDAFEKAAGGSETGPRSSPPTYGM
protein production: failed

MGLLSDPVRRRALARLVLRLNAPLCVLSYVAGIAWFLALVFPPLTQRTYMSENAMGSTMVEEQFAGGDRARAFARDFAAHRKKSGALPVAWLERTMRSVGLEVYTQSFSRKLPFPDETHERYMVSGTNVYGILRAPRAASTESLVLTVPCGSDSTNSQAVGLLLALAAHFRGQIYWAKDIVFLVTEHDLLGTEAWLEAYHDVNVTGMQSSPLQGRAGAIQAAVALELSSDVVTSLDVAVEGLNGQLPNLDLLNLFQTFCQKGGLLCTLQGKLQPEDWTSLDGPLQGLQTLLLMVLRQASGRPHGSHGLFLRYRVEALTLRGINSFRQYKYDLVAVGKALEGMFRKLNHLLERLHQSFFLYLLPGLSRFVSIGLYMPAVGFLLLVLGLKALELWMQLHEAGMGLEEPGGAPGPSVPLPPSQGVGLASLVAPLLISQAMGLALYVLPVLGQHVATQHFPVAEAEAVVLTLLAIYAAGLALPHNTHRVVSTQAPDRGWMALKLVALIYLALQLGCIALTNFSLGFLLATTMVPTAALAKPHGPRTLYAALLVLTSPAATLLGSLFLWRELQEAPLSLAEGWQLFLAALAQGVLEHHTYGALLFPLLSLGLYPCWLLFWNVLFWK
protein production: failed

MGLMKFQLFIQPKLDVLQGNIVEYEILLRDDSAVPRFPLSELEAVLADEELYLAFSEWFSEAFLDVLKKYPNDRFAINIAPQQLFYIETLHWLDKLKSESHRITVEMTEDIFDVPGHKRHLNANDKNAFILNKIKVIHGLGYHIAIDDVSCGLNSLERVMSYLPYIIEIKFSLIHFKNIPLEDLLLFIKAWANFAQKNKLDFVVEGIETKETMTLLESHGVSIFQGYLVNKPFPV
protein production: not failed

MGLNSKAEVAKSRKNAAEAEQKDRQTREKEEQYWREAEGPKSKAVKKREEEAEKKAETAAKKLEAKRLAEQEEKELEKALKKPDKKANRVTVPVPKVTEAELIRRREEDQVALAKKAEDSKKKQTRMAGEDEYEKMVLVTNTNRDDSLIEAHTVDEALARITVSDNLPVDRHPEKRLKASFKAYEEVELPRLKSEKPGLTHTQYKDLIWKMWKKSPDNPLNQAAAAAANE
protein production: failed

MGLSNKFKSFFFLDEEEEYYEEEVAREPEPMQKKTKKEKPSKNRFYAVEEEDAKVVSMQGAQFSSRMVLAEPRVYAEAQELADYLKDYKTVVVNLQRISHDQATRIVDFLSGTVYALGGDIQRVGNNIFLTPDNVEVNGSISEMLDEQNFMLEHHHHHH
protein production: failed

MGMTVVIILVFSFFVAIVTAETSPYIIHMDLSAKPLPFSDHRSWFSTTLTSVITNRKPKIIYAYTDSVHGFSAVLTNSELQRLKHKPGYVSFTKDLPVKLHTTFSPKFIGLNSTSGTWPVSNYGAGIVIGIIDTGIWPDSPSFHDDGVGSVPSKWKGACEFNSSSLCNKKLIGAKVFNKGLFANNPDLRETKIGQYSSPYDTIGHGTHVAAIAAGNHVKNASYFSYAQGTASGIAPHAHLAIYKAAWEEGIYSSDVIAAIDQAIRDGVHVISLSLGLSFEDDDDNDGFGLENDPIAVASFAAIQKGVFVVTSGGNDGPYYWSLINGAPWIMTVGAGTIGRQFQGTLTFGNRVSFSFPSLFPGEFPSVQFPVTYIESGSVENKTLANRIVVCNENINIGSKLHQIRSTGAAAVVLITDKLLEEQDTIKFQFPVAFIGSKHRETIESYASSNKNNATAKLEFRKTVIGTKPAPEVGTYSSRGPFTSFPQILKPDILAPGTLILSAWPSVEQITGTRALPLFSGFNLLTGTSMAAPHVAGVAALIKQVHPNWSPSAIKSAIMTTALTLDNPLAVGAGHVSTNKVLNPGLIYDTTPQDFINFLCHEAKQSRKLINIITRSNISDACKKPSPYLNYPSIIAYFTSDQSSPKIFKRTLTNVGEAKRSYIVRVRGLKGLNVVVEPKKLMFSEKNEKLSYTVRLESPRGLQENVVYGLVSWVDEDEAEFEVSCSVVATSLVQES
protein production: failed

MGNDNVTIKLEHRVKTSADLSDYVYKYERAYTDALNNGDDIKEASESTKKELNQLIDRTDLTYSDGMYDKETGIAAIAVKDKNTGETYIAYAGTNKDADGATDFISDANIGANNSAYLKRLGDKATSFYDRVQSNGDNITVTTGHSYGDFLASRVAIELIPFFINFRKVNDSFHFCY
protein production: failed

MGNGLAKCLIDGDTETFWHAKWQGGSDPLPYDIVIDMKQNIQIAQVELLPRGRGSNNPIKVVEFAASEDNVNWTPIGRFGFTNQDAALEYYVKSIKARYIRLTIPDDGGNSTVAAIRELDVKGTIINLEHHHHHH
protein production: failed

MGNHFSKLGFVLAALGSAIGLGHIWRFPYMTGVSGGGAFVLLFLFLSLSVGAAMFIAEMLLGQSTQKNVTEAFKELDINPKKRWKYAGLLLVSGPLILTFYGTILGWVLYYLVSVSFNLPNNIQESEQIFTQTLQSIGLQSIGLFSVLLITGWIVSRGIKEGIEKLNLVLMPLLFATFFGLLFYAMSMDSFSKAFHFMFDFKPKDLTSQVFTYSLGQVFFSLSIGLGINITYAAVTDKTQNLLKSTIWVVLSGILISLVAGLMIFTFVFEYGANVSQGTGLIFTSLPVVFGQMGAIGILVSILFLLALAFAGITSTVALLEPSVMYLTERYQYSRFKVTWGLVALIFVVGVVLIFSLHKDYKDYLTFFEKSLFDWLDFASSTIIMPLGGMATFIFMGWVLKKEKLRLLSVHFLGPKLFATWYFLLKYITPLIVFSIWLSKIY
protein production: failed

MGNMISAVVAAAGRGSRMMRDMAELGLEPVHKLLLPLNGVTVIEATVKAVLSAGVDECIVVTGHRAGEVEEALSGMDVRVVRNDPVDVPLSASLLRGVRAAGGDIILCAAGDQPAVSPATLRRIAEHADGSTVSILARGESGWLDNARGIGMPLAAGADLLRDYLPLGDGNINPLLWMMLEDGVRLYGVEASRPIELVNINHYSDYLRIRDHFLRTNADGN
protein production: failed

MGPIGAEADENQTVEEMKVEQYGPQTTPRGELVPDPEPELIDSTKLIEVQVVLILAYCSIILLGVIGNSLVIHVVIKFKSMRTVTNFFIANLAVADLLVNTLCLPFTLTYTLMGEWKMGPVLCHLVPYAQGLAVQVSTITLTVIALDRHRCIVYHLESKISKRISFLIIGLAWGISALLASPLAIFREYSLIEIIPDFEIVACTEKWPGEEKSIYGTVYSLSSLLILYVLPLGIISFSYTRIWSKLKNHVSPGAANDHYHQRRQKTTKMLVCVVVVFAVSWLPLHAFQLAVDIDSQVLDLKEYKLIFTVFHIIAMCSTFANPLLYGWMNSNYRKAFLSAFRCEQRLDAIHSEVSVTFKAKKNLEVRKNSGPNDSFTEATNV
protein production: failed

MGPVPIKLALVIPNYNHSAAISQALSELAALNLPCYLIDDGSNDETRYLLQSLAEQHDWVTLLQHPYNRGKGAAVMTGLRSAYRDGFTHALQVDADGQHNLSDIPAMLAKAQAKPDALISGKPEYDKSVPKGRLYGRYLTHFWVWVETLSFDIQDSMCGFRVYPLAATERLFSKQALTERMDFDIEILVKLYWQGVEILFHPTKVIYPENGVSHFQCVADNVRISKLHTRLFFGMLKRLPQLLRRKQAAKSTSSAHTATHWSAMKERGSYWGIKLLVESYRFGGHWLCRAIMYPVICYFFLTGKVSREASRDFLRRVQHLEPQHPQLNQPVGWRDSLNHFIAFGNAALDRIDAWCDRIQLSQVDFPDRQVLADQLESGKGAVLLVSHLGNLELCRAISIHQRKVKVNVMVLTSHAENFNNVLKQLNPNSSLNLIQVTELNPATSMLLQQKIEDGELVVIAGDRTSSHAQGRVVYAPFMGQDAAFPQGPFILAGLLDCPVYLMFCLREQGRYRVHLERFAETLKGPRAGRMERLQQAVYRYSERLEHYARREPLQWFNFFDFWRDDNQVNRATSAHKTTAALPEQERTTDRTEHLLEHHHHHH
protein production: not failed
